Assay [1] has as its target T1, AAV8 (adeno-associated virus 8, Assembled 60-mer capsid of VP1/VP2/VP3 (nested products of one cap gene), amine-coupled to a CM5 chip; the letters give one VP1 subunit only.).
T1 construct: also called adeno-associated virus serotype 8
T1 chain: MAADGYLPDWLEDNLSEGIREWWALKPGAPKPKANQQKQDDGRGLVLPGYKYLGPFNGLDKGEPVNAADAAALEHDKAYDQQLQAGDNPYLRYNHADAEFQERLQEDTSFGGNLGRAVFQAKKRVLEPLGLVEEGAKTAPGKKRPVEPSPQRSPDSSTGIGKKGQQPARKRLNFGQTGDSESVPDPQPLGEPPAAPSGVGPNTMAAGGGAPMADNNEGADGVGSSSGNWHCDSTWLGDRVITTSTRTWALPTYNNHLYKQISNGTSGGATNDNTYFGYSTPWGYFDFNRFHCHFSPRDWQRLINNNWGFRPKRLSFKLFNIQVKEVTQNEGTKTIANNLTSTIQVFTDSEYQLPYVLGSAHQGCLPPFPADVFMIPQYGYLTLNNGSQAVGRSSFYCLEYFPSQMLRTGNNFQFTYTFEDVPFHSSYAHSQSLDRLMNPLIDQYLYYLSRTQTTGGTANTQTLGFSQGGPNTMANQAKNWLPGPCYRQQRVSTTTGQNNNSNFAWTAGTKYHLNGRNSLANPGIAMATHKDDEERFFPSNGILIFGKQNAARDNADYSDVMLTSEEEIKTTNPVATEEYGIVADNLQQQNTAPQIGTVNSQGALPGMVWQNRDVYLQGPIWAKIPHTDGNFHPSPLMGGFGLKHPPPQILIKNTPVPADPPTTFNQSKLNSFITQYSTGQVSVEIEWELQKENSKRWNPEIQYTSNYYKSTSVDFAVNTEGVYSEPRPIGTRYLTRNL
In words: SPR, AAV amine-coupled to CM5 chip. A general note: SPR reads the build-up and loss of mass on a sensor chip optically.

The target in assay [2] is T2, AAV9 (adeno-associated virus 9, Assembled 60-mer capsid of VP1/VP2/VP3 (nested products of one cap gene), amine-coupled to a CM5 chip; the letters give one VP1 subunit only.).
T2 construct: also called adeno-associated virus serotype 9
Put plainly: SPR, AAV amine-coupled to CM5 chip.

The target of assay [3] is T3, AAV5 (adeno-associated virus 5, Assembled 60-mer capsid of VP1/VP2/VP3 (nested products of one cap gene), amine-coupled to a CM5 chip; the letters give one VP1 subunit only.).
T3 construct: also called adeno-associated virus serotype 5
In words: SPR, AAV amine-coupled to CM5 chip.

For assay [4], the target named is T4, AAV8 (adeno-associated virus 8).
T4 construct: also called adeno-associated virus serotype 8
Put plainly: SPR, AAV on CM5 chip.
Protocol: AAV was amine-coupled to a CM5 sensor chip at a density of 500-800 response units (RU). Nanobodies were injected at seven concentrations (1-100 nM) with a flow rate of 45 μL/min, and chip regeneration was performed using glycine-HCl (pH 1.5).

B1: A4-C8 (bispecific antibody)
chain: VQLQESGGGLVQPGGSLRLSCAASGSNFRINTMGWYRQAPGKQRELVAPVTRGGSTNYADSVKGRFTISRDNAKNTVYLQMNSLRPEDTAVYYCHVDEVRESSWTTSNLWGQGTQVTVSSGGGGSGGGGSGGGGSVQLQESGGGLVQPGGSLRLSCAASGSNFSINTMGWYRQAPGKQRELVATVTRGGDTNYADSVKGRFTISRDNAKNTVYLQMNSLRPEDTAVYYCHVDEIRESSWTTSNLWGQGTQVTVSSGGGGSGGGGSGGGGSVQLQESGGGLVQPGGSLRLSCAASGSNFSINTMGWYRQAPGKQRELVAALTRGGSTNYADSVKGRFTISRDNAKNTVYLQMNSLRPEDTAVYYCHVDEVRESSWTTSNLWGQGTQVTVSS
In assay [1], B1 had a dissociation constant (Kd) of 2.81 nM, a koff of 0.00037 s⁻¹ and a kon of 132000 M⁻¹ s⁻¹. Moreover, in assay [2], the Kd amounted to 0.279 nM, the koff is 5e-05 s⁻¹ and the kon was 179000 M⁻¹ s⁻¹. In assay [3], the Kd came to 0.69 nM, the koff was 0.00013 s⁻¹ and the on-rate (kon) is 188000 M⁻¹ s⁻¹.

B2: A4-052 (VHH)
VHH: VQLQESGGGLVQPGGSLRLSCAASGSIFIINTMGWYRQAPGKQRELVAAVTRGGSTNYADSVKGRFTISRDNAKNTVYLQMNSLRPEDTAVYYCHVDEVRQSSWTTSNLWGQGTQVTVSS
In assay [4], B2 displayed an on-rate constant (kon) of 31800 M⁻¹ s⁻¹.

B3: A4-D2 (VHH)
chain: VQLQESGGGLVQAGGSLRLSCAASGRGFSINTMGWYRQAPGKQRELVAAVTRGGTTNYADSVKGRFTISRDNAKNTVYLQMNSLRPEDTAVYYCHVDEVRQSSWTTSNLWGQGTQVTVSSGGGGSGGGGSGGGGSVQLQESGGGLVQAGGSLRLSCAASGRGFSINTMGWYRQAPGKQRELVAAVTRGGTTNYADSVKGRFTISRDNAKNTVYLQMNSLRPEDTAVYYCHVDEVRQSSWTTSNLWGQGTQVTVSSGGGGSGGGGSGGGGSVQLQESGGGLVQAGGSLRLSCAASGRGFSINTMGWYRQAPGKQRELVAAVTRGGTTNYADSVKGRFTISRDNAKNTVYLQMNSLRPEDTAVYYCHVDEVRQSSWTTSNLWGQGTQVTVSSGGGGSGGGGSGGGGSVQLQESGGGLVQAGGSLRLSCAASGRGFSINTMGWYRQAPGKQRELVAAVTRGGTTNYADSVKGRFTISRDNAKNTVYLQMNSLRPEDTAVYYCHVDEVRQSSWTTSNLWGQGTQVTVSS
In the case of B3, in assay [1], the Kd was 0.0821 nM, the off-rate constant (koff) amounted to 3.6e-06 s⁻¹ and the kon is 43900 M⁻¹ s⁻¹. In assay [2], this molecule showed a Kd of 0.304 nM, a koff of 9e-06 s⁻¹ and a kon of 29600 M⁻¹ s⁻¹. In assay [3], the dissociation constant Kd stood at 0.0996 nM, the off-rate constant (koff) was 5.7e-06 s⁻¹ and the on-rate constant (kon) worked out at 57200 M⁻¹ s⁻¹.

B4: A4-D5 (other)
chain: VQLQESGGGLVQPGGSLRLSCVASGSSFSINTMGWYRRAPGKQRELVATVTRDGSTNYANSVKGRFTISRDNAKNTVYLQMNSLRPEDTAVYYCHVDEVRQSSWTTSNLWGQGTQVTVSSGGGGSGGGGSGGGGSVQLQESGGGLVQPGGSLRLSCVASGSSFSINTMGWYRRAPGKQRELVATVTRDGSTNYANSVKGRFTISRDNAKNTVYLQMNSLRPEDTAVYYCHVDEVRQSSWTTSNLWGQGTQVTVSSGGGGSGGGGSGGGGSVQLQESGGGLVQPGGSLRLSCVASGSSFSINTMGWYRQAPGKQRELVATVTRDGSTNYANSVKGRFTISRDNAKNTVYLQMNSLRPEDTAVYYCHVDEVRQSSWTTSNLWGQGTQVTVSSGGGGSGGGGSGGGGSVQLQESGGGLVQPGGSLRLSCVASGSSFSINTMGWYRRAPGKQRELVATVTRDGSTNYANSVKGRFTISRDNAKNTVYLQMNSLRPEDTAVYYCHVDEVRQSSWTTSNLWGQGTQVTVSS
Regarding B4, the figures for the Kd in assay [1], in assay [2] and in assay [3] were 0.0836 nM, 0.117 nM and 0.318 nM, respectively. The koff is 5e-06 s⁻¹ in assay [1], 4.3e-06 s⁻¹ in assay [2] and 1.34e-05 s⁻¹ in assay [3]. Besides, the figures for the kon in assay [1], in assay [2] and in assay [3] were 59800 M⁻¹ s⁻¹, 36900 M⁻¹ s⁻¹ and 42100 M⁻¹ s⁻¹, respectively.

The Kd is the concentration at which binding is half-saturated. Read a low Kd as a tighter complex. Usually koff stands for a measure of how fast the partners let go of each other. Lower therefore signals slow dissociation. By kon is commonly meant the rate constant with which the complex forms. Low readings indicate slower complex formation, high ones faster complex formation.
